Source: patent US20250213702A1

Target: IL-2Rαβγ on mouse CTLL-2 cells (mouse) (UniProt P01590)
Assay: cell-based or functional assay

UniProt P01590, sequence (P01590 22-268, chain 1 of 3): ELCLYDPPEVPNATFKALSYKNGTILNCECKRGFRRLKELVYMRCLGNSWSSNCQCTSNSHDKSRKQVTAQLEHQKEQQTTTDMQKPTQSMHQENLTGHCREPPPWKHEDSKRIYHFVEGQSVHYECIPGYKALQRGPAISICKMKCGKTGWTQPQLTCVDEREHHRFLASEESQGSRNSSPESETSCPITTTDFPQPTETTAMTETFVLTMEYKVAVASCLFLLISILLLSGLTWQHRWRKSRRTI
UniProt P01590, sequence (P16297 27-539, chain 2 of 3, further chain): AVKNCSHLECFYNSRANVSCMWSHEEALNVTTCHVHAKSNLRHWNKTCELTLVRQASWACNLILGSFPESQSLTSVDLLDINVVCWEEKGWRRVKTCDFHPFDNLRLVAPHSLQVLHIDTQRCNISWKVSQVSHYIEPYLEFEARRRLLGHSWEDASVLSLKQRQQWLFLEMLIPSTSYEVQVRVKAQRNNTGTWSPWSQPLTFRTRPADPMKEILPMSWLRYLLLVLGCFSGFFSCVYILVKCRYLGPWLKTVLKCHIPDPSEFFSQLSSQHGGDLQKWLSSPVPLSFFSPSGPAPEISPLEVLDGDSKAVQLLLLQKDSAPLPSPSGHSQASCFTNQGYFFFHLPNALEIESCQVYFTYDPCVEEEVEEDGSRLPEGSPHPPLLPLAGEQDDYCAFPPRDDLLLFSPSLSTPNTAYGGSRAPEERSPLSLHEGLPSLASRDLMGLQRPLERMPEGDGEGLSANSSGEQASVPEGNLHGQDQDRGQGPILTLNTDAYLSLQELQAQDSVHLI
UniProt P01590, sequence (P34902 23-369, chain 3 of 3, further chain): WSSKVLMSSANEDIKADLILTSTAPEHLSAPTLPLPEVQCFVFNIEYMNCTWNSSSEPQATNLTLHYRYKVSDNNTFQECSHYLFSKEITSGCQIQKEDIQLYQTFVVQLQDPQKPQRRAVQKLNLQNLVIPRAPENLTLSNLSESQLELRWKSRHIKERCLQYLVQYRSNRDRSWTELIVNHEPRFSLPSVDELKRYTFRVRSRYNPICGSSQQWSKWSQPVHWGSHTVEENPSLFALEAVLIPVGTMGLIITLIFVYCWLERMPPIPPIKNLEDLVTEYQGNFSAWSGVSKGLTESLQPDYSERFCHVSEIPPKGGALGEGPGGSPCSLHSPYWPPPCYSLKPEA

## reference rhIL-2 (purchased from Beijing Solarbio Science & Technology Co., Ltd., catalog number: P00020) (from UniProt P60568 21-153) (ligand)
  EC50 (ng/mL) of STAT5 phosphorylation assay (CTLL-2 cells): 0.38 ng/mL
  EC50 (ng/mL), STAT5 phosphorylation assay (CTLL-2 cells): 0.18 ng/mL
